Assay [1] has as its target T1, FcγRIIb extracellular domain with C-terminal His tag (human, UniProt P31994 43-217).
T1 construct: extracellular domain; also called FcgRIIb; 2b; not shown: His tag at the C terminus
T1 sequence (looked up): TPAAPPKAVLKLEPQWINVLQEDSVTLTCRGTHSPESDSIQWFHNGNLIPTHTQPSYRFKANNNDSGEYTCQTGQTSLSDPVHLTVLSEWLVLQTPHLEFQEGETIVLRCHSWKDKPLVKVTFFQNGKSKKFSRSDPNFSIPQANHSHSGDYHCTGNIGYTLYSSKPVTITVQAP
As to the kind of experiment: SPR (Biacore), antibody captured on antigen peptide chip, FcγR as analyte; relative binding amount. On the procedure:
(§1) Analysis of interaction between objective antibody and the FcγR was carried out using Biacore T100 (GE Healthcare). HBS-EP+ (GE Healthcare) was used as the running buffer, and the measurement temperature was set to 25° C. Chips produced by immobilizing the antigen peptide by the amine coupling method to a Series S Sencor Chip CM5 (GE Healthcare), or alternatively, chips produced by allowing preliminarily biotinylated antigen peptides to interact with and immobilize onto a Series S Sensor Chip SA (certified) (GE Healthcare) were used. Antibodies of interest were captured onto an antigen peptide-immobilized chip, and allowed to interact to each FcγR diluted with running buffer. To regenerate and repeatedly use the chip, the antibodies captured on the chip were washed off by reacting 10 mM glycine-HCl, pH 1.5.
(§2) The FcγR-binding activity of each antibody was assessed primarily using as an indicator the FcγR-binding activity and dissociation constant for FcγR.
(In SPR one partner is held on a chip, and binding of the other changes the refractive index at the surface.)

Assay [2] addresses T2, FcγRIIIa extracellular domain with C-terminal His tag (human, UniProt P08637 17-208).
T2 construct: extracellular domain; also called FcgRIIIa; 3a; not shown: His tag at the C terminus
The description is as above. As to the method:
as §1, §2

From patent US20180155451A1 (published 2018) come the findings set out here.

T2 sequence (P08637 17-208): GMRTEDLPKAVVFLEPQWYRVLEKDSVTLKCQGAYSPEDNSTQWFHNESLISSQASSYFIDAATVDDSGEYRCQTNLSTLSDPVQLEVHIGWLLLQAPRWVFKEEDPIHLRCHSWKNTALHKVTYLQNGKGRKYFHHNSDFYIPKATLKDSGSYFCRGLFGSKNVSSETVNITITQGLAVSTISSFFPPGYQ

B1: GpH7-A5/GpH7-B3 variant S267_14T/GpL16-k0 (antibody, human IgG1, kappa)
heavy 1: not shown
heavy 2: not shown
light: DIVMTQSPLSLPVTPGEPASISCQASESLVHSNRNTYLHWYLQKPGQSPQLLIYKVSNRFSGVPDRFSGSGSGTDFTLKISRVEAEDVGVYYCSQNTHVPPTFGQGTKVEIERTVAAPSVFIFPPSDEQLKSGTASVVCLLNNFYPREAKVQWKVDNALQSGNSQESVTEQDSKDSTYSLSSTLTLSKADYEKHKVYACEVTHQGLSSPVTKSFNRGEC
notes: Heterodimerized anti-glypican-3 IgG1; the substitution stands in the GpH7-B3 chain only; also called He Ab
Consider B1, for which the He/Con_2b in assay [1] is 104 % of GpH7-A5/GpH7-B3/GpL16-k0 (=100). Moreover, the He/Con_3a in assay [2] was 45.6 % of GpH7-A5/GpH7-B3/GpL16-k0 (=100).

B2: GpH7-A5/GpH7-B3 variant P271_09D/GpL16-k0 (antibody, human IgG1, kappa)
heavy 1: not shown
heavy 2: not shown
light: DIVMTQSPLSLPVTPGEPASISCQASESLVHSNRNTYLHWYLQKPGQSPQLLIYKVSNRFSGVPDRFSGSGSGTDFTLKISRVEAEDVGVYYCSQNTHVPPTFGQGTKVEIERTVAAPSVFIFPPSDEQLKSGTASVVCLLNNFYPREAKVQWKVDNALQSGNSQESVTEQDSKDSTYSLSSTLTLSKADYEKHKVYACEVTHQGLSSPVTKSFNRGEC
notes: as for B1
B2: in assay [1], the He/Con_2b was 120 % of GpH7-A5/GpH7-B3/GpL16-k0 (=100). The He/Con_3a in assay [2] was 93.1 % of GpH7-A5/GpH7-B3/GpL16-k0 (=100).

B3: GpH7-A5/GpH7-B3 variant H268_01G/GpL16-k0 (antibody, human IgG1, kappa)
heavy 1: not shown
heavy 2: not shown
light: DIVMTQSPLSLPVTPGEPASISCQASESLVHSNRNTYLHWYLQKPGQSPQLLIYKVSNRFSGVPDRFSGSGSGTDFTLKISRVEAEDVGVYYCSQNTHVPPTFGQGTKVEIERTVAAPSVFIFPPSDEQLKSGTASVVCLLNNFYPREAKVQWKVDNALQSGNSQESVTEQDSKDSTYSLSSTLTLSKADYEKHKVYACEVTHQGLSSPVTKSFNRGEC
notes: as for B1
With B3, the He/Con_2b in assay [1] was 144 % of GpH7-A5/GpH7-B3/GpL16-k0 (=100). For the same molecule, the He/Con_3a in assay [2] was 96.7 % of GpH7-A5/GpH7-B3/GpL16-k0 (=100).

B4: GpH7-A5/GpH7-B3 variant P271_10E/GpL16-k0 (antibody, human IgG1, kappa)
heavy 1: not shown
heavy 2: not shown
light: DIVMTQSPLSLPVTPGEPASISCQASESLVHSNRNTYLHWYLQKPGQSPQLLIYKVSNRFSGVPDRFSGSGSGTDFTLKISRVEAEDVGVYYCSQNTHVPPTFGQGTKVEIERTVAAPSVFIFPPSDEQLKSGTASVVCLLNNFYPREAKVQWKVDNALQSGNSQESVTEQDSKDSTYSLSSTLTLSKADYEKHKVYACEVTHQGLSSPVTKSFNRGEC
notes: as for B1
In the case of B4, the He/Con_2b in assay [1] was 109 % of GpH7-A5/GpH7-B3/GpL16-k0 (=100). In assay [2], the He/Con_3a is 93.6 % of GpH7-A5/GpH7-B3/GpL16-k0 (=100).

B5: GpH7-A5/GpH7-B3 variant H268_15Y/GpL16-k0 (antibody, human IgG1, kappa)
heavy 1: not shown
heavy 2: not shown
light: DIVMTQSPLSLPVTPGEPASISCQASESLVHSNRNTYLHWYLQKPGQSPQLLIYKVSNRFSGVPDRFSGSGSGTDFTLKISRVEAEDVGVYYCSQNTHVPPTFGQGTKVEIERTVAAPSVFIFPPSDEQLKSGTASVVCLLNNFYPREAKVQWKVDNALQSGNSQESVTEQDSKDSTYSLSSTLTLSKADYEKHKVYACEVTHQGLSSPVTKSFNRGEC
notes: as for B1
With B5, the He/Con_2b in assay [1] is 106 % of GpH7-A5/GpH7-B3/GpL16-k0 (=100). In addition, the He/Con_3a in assay [2] is 97.5 % of GpH7-A5/GpH7-B3/GpL16-k0 (=100).

B6: GpH7-A5/GpH7-B3 variant H268_03V/GpL16-k0 (antibody, human IgG1, kappa)
heavy 1: not shown
heavy 2: not shown
light: DIVMTQSPLSLPVTPGEPASISCQASESLVHSNRNTYLHWYLQKPGQSPQLLIYKVSNRFSGVPDRFSGSGSGTDFTLKISRVEAEDVGVYYCSQNTHVPPTFGQGTKVEIERTVAAPSVFIFPPSDEQLKSGTASVVCLLNNFYPREAKVQWKVDNALQSGNSQESVTEQDSKDSTYSLSSTLTLSKADYEKHKVYACEVTHQGLSSPVTKSFNRGEC
notes: as for B1
Take B6: the He/Con_2b in assay [1] was 114 % of GpH7-A5/GpH7-B3/GpL16-k0 (=100). Besides, in assay [2], the He/Con_3a is 92.3 % of GpH7-A5/GpH7-B3/GpL16-k0 (=100).

B7: GpH7-A5/GpH7-B3 variant K326_20W/GpL16-k0 (antibody, human IgG1, kappa)
heavy 1: not shown
heavy 2: not shown
light: DIVMTQSPLSLPVTPGEPASISCQASESLVHSNRNTYLHWYLQKPGQSPQLLIYKVSNRFSGVPDRFSGSGSGTDFTLKISRVEAEDVGVYYCSQNTHVPPTFGQGTKVEIERTVAAPSVFIFPPSDEQLKSGTASVVCLLNNFYPREAKVQWKVDNALQSGNSQESVTEQDSKDSTYSLSSTLTLSKADYEKHKVYACEVTHQGLSSPVTKSFNRGEC
notes: as for B1
In the case of B7, in assay [1], the He/Con_2b was 148 % of GpH7-A5/GpH7-B3/GpL16-k0 (=100). The He/Con_3a in assay [2] is 84.8 % of GpH7-A5/GpH7-B3/GpL16-k0 (=100).

B8: GpH7-A5/GpH7-B3 variant K326_16H/GpL16-k0 (antibody, human IgG1, kappa)
heavy 1: not shown
heavy 2: not shown
light: DIVMTQSPLSLPVTPGEPASISCQASESLVHSNRNTYLHWYLQKPGQSPQLLIYKVSNRFSGVPDRFSGSGSGTDFTLKISRVEAEDVGVYYCSQNTHVPPTFGQGTKVEIERTVAAPSVFIFPPSDEQLKSGTASVVCLLNNFYPREAKVQWKVDNALQSGNSQESVTEQDSKDSTYSLSSTLTLSKADYEKHKVYACEVTHQGLSSPVTKSFNRGEC
notes: as for B1
Take B8: the He/Con_2b in assay [1] was 119 % of GpH7-A5/GpH7-B3/GpL16-k0 (=100). For the same molecule, in assay [2], the He/Con_3a was 96.1 % of GpH7-A5/GpH7-B3/GpL16-k0 (=100).
